Holding throughout (assay): EMSA
A general note: Mobility shift assays separate free from complexed probe on a gel.

Data set [1] has as its target T1, GST:CD+HD (UniProt Q01826 255-763).
T1 sequence: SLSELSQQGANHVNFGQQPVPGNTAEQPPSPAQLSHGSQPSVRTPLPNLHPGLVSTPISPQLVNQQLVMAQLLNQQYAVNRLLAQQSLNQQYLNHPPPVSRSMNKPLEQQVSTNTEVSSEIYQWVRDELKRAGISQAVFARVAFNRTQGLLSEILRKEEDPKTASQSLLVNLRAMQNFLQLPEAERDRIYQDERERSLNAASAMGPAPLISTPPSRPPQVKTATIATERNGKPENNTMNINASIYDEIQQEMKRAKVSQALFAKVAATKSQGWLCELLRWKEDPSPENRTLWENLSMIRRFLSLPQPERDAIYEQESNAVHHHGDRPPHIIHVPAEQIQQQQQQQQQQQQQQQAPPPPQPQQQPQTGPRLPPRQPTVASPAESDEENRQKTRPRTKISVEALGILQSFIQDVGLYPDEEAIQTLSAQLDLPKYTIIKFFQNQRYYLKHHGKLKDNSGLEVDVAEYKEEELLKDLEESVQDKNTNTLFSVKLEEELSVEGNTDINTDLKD

For a further data set, the target named is T2, GST:HD (UniProt Q01826 640-763).
T2 sequence: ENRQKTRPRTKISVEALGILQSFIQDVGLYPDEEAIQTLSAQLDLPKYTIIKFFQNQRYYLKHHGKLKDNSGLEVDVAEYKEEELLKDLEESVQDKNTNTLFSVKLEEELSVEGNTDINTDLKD

Data set [2] concerns the target T1, GST:CD+HD. This is another data set of the same source.

Read-outs that look alike come from different tables or passages of the source.

B1: probe 9 (dsDNA)
DNA 1: TATTAGTAATCATATTAGTAATCA
DNA 2: TGATTACTAATATGATTACTAATA
Broadly, the Kd is the concentration at which binding is half-saturated. The low end stands for tighter binding, the high end for weaker binding. B1: the affinity with GST:CD+HD [1], expressed as Kd, was 10 nM.

B2: probe 3 (dsDNA)
DNA 1: TATTAGCAATAATATTAGCAATAA
DNA 2: TTATTGCTAATATTATTGCTAATA
In the data set with GST:CD+HD [1], B2 registered a Kd of 50 nM.

B3: probe 10 (dsDNA)
DNA 1: TATTAGTAATACTATTAGTAATAC
DNA 2: GTATTACTAATAGTATTACTAATA
B3: the Kd with GST:CD+HD [1] was found to be 20 nM; with GST:HD, 200 nM.

B4: CSBS dimer (probe 1) (dsDNA)
DNA 1: TATTAGTAATAATATTAGTAATAA
DNA 2: TTATTACTAATATTATTACTAATA
Take B4: the Kd was 200 nM with GST:HD and 10 nM with GST:CD+HD [2].

B5: probe 5 (dsDNA)
DNA 1: TATTAATAATAATATTAATAATAA
DNA 2: TTATTATTAATATTATTATTAATA
In turn, B5 displayed a Kd with GST:CD+HD [1] of 10 nM.

B6: probe 13 (IgH MAR core dimer) (dsDNA)
DNA 1: AATTTCTAATATAATTTCTAATAT
DNA 2: ATATTAGAAATTATATTAGAAATT
Molecule B6 showed a dissociation constant Kd with GST:CD+HD [1] of 10 nM.

Values taken from article PMC2367706.
